{"source": "patent US20050245731A1", "key": {"[1]": {"target": "TNF-α cell surface receptors on human HeLa and FS11 fibroblast cells (human)", "sequence (P19438 30-455)": "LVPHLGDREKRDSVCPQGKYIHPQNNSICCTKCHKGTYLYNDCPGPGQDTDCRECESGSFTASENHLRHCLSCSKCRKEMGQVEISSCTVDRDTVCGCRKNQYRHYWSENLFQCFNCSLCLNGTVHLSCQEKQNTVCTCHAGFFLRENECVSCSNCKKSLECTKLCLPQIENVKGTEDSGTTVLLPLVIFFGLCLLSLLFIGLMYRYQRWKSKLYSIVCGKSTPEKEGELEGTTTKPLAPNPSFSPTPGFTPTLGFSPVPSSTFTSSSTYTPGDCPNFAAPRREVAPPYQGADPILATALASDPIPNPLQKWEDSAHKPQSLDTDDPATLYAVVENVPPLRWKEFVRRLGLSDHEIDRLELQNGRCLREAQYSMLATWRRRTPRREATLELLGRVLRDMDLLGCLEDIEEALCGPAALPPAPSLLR", "assay": "125I-TNF-α binding to cells; control without urine concentrate, condition C (4° C. together with TNF-α)"}, "[2]": {"target": "TNF-α cell surface receptors on human HeLa and FS11 fibroblast cells (human)", "assay": "125I-TNF-α binding to cells; control without urine concentrate, condition A (4° C. 90′ prior to application of TNF-α)"}, "[3]": {"target": "TNF-α cell surface receptors on human HeLa and FS11 fibroblast cells (human)", "assay": "125I-TNF-α binding to cells; control without urine concentrate, condition B (37° C. 90′ prior to application of TNF-α)"}, "[4]": {"target": "TNF-α cell surface receptors on human HeLa and FS11 fibroblast cells (human)", "assay": "125I-TNF-α binding to cells; urine concentrate holding TNF Inhibitory Protein applied at 37° C. 90′ prior to TNF-α and removed (condition B)"}}, "note": "Where “and” joins values, the source holds several entries; their conditions need not be identical. Equal values may be shown once.", "data": [{"substance": "Tumor Necrosis Factor-α (TNF-α) (from UniProt P01375 77-233) (ligand)", "values": [{"measurement": "CPM", "setting": "[1]", "result": 4630, "unit": "CPM"}, {"measurement": "CPM", "setting": "[2]", "result": 5290, "unit": "CPM"}, {"measurement": "CPM", "setting": "[3]", "result": 5560, "unit": "CPM"}, {"measurement": "CPM", "setting": "[4]", "result": "4730 CPM and 4460 CPM"}]}]}
